Measured values from patent publication US20240390459A1, “ANTI-DEPRESSION AND ANTI-ANXIETY APPLICATION OF POLYPEPTIDE AND COMPLEX” (SHENZHEN CHENYANG BIOLOGICAL TECHNOLOGY CO., LTD, priority 2021, published 2024).
Ends that are not written are not given here.

B1: TAT-5HT2AR-CT: CT region (K385-V471) of 5-HT2AR fused with TAT (peptide, UniProt P28223 385-471, looked up, fragment)
chain: KTYRSAFSRYIQCQYKENKKPLQLILVNTIPALAYKSSQLQMGQKKNSKQDAKTTDNDCSMVALGKQHSEEASKDNSDGVNEKVSCV
modifications: C-terminal region fused with TAT peptide
notes: CT region (K385-V471) of 5-HT2AR fused with TAT
B2: GST-5HT2AR-CT: GST fusion protein containing the CT region of 5-HT2AR (K385-V471) (protein)
chain: B1 chain
modifications: left off: a dimerising Fc or GST
B3: Dopamine D2 receptor (D2R), endogenous, from mouse hippocampus tissue (receptor, UniProt P61168 1-444, looked up)
chain: MDPLNLSWYDDDLERQNWSRPFNGSEGKPDRPHYNYYAMLLTLLIFIIVFGNVLVCMAVSREKALQTTTNYLIVSLAVADLLVATLVMPWVVYLEVVGEWKFSRIHCDIFVTLDVMMCTASILNLCAISIDRYTAVAMPMLYNTRYSSKRRVTVMIAIVWVLSFTISCPLLFGLNNTDQNECIIANPAFVVYSSIVSFYVPFIVTLLVYIKIYIVLRKRRKRVNTKRSSRAFRANLKTPLKGNCTHPEDMKLCTVIMKSNGSFPVNRRRMDAARRAQELEMEMLSSTSPPERTRYSPIPPSHHQLTLPDPSHHGLHSNPDSPAKPEKNGHAKIVNPRIAKFFEIQTMPNGKTRTSLKTMSRRKLSQQKEKKATQMLAIVLGVFIICWLPFFITHILNIHCDCNIPPVLYSAFTWLGYVNSAVNPIIYTTFNIEFRKAFMKILHC
notes: Native protein in a tissue lysate, detected by Western blot with sc-5303

What was measured:
[1] = target: T1, D1R from mouse hippocampus tissue (Mus musculus, UniProt Q61616); assay: GST pulldown analysis of mouse hippocampus tissue extract with Western blot; format: binding; conditions: 15 μg GST fusion protein, 500 μg mouse hippocampus tissue extract, overnight 4° C.
T1 construct: from tissue; host or cells: mouse hippocampus tissue extract
Description: In order to confirm the interbinding site of the 5-HT2AR/D1R complex, the 5-HT2AR full-length cDNA clone (Genbank Accession No.: NM_001378924) was first amplified to obtain cDNA fragments of the CT region of 5-HT2AR (K385-V471) and the third intracellular loop (IL3) region of 5-HT2AR (F255-V324). These fragments were subcloned to the BamH1/EcoR1 or BamH1/Xho1 site of a pGEX-4T-3 plasmid (YouBio no: VT1255). The initial methionine residue and termination codon were incorporated as appropriate. All constructs were resequenced to confirm that splicing and fusion was achieved appropriately. The GST fusion protein containing the third intracellular loop (IL3) of 5-HT2AR (GST-5HT2AR-IL3) and the GST fusion protein containing the CT region of 5-HT2AR (GST-5HT2AR-CT) were expressed from E. coli BL21 viable cells (AlpalifeBio, no: KTSM104L) and purified from bacterial lysate solution.
500 μg of dissolved mouse hippocampus tissue extract was diluted with 1×PBS/1% Triton X-100 and then incubated overnight with 20 μl protein GST resin saturated GST protein or 15 μg GST fusion protein at 4° C. Beads were washed 1-8 times with 1×PBS/1% Triton X-100. Binding proteins were eluted with 2×loading buffer, separated by SDS-PAGE, and underwent Western blot with respective antibodies thereof.
According to the method in the present Example, a pulldown analysis was performed using a GST fusion protein containing a KV region of 5-HT2AR (GST-5HT2AR-KV), a GST fusion protein containing a NN region of 5-HT2AR (GST-5HT2AR-NN), and a GST fusion protein containing a DV region of 5-HT2AR (GST-5HT2AR-DV), and the results of Western blot were shown in FIG. 4 B.
According to the method in the present Example, a pulldown analysis was performed using a GST fusion protein containing a DA region of 5-HT2AR (GST-5HT2AR-DA), and a GST fusion protein containing a SV region of 5-HT2AR (GST-5HT2AR-SV), and the results of Western blot were shown in FIG. 4 C.

[2] = target: T2, 5-HT2AR/D1R complex (Mus musculus, UniProt Q61616); assay: Co-immunoprecipitation of hippocampus tissue from polypeptide-treated mice; format: in vivo; conditions: single intraperitoneal administration 3 nmol/g, 1 hour after treatment, control TAT only
T2 construct: Co-immunoprecipitation was performed using protein samples (100-500 μg protein) from mouse hippocampus tissue; from tissue; host or cells: hippocampus tissue of treated mice (naive, CRS, CMS, CSDS)
Experimental: (§1) Co-immunoprecipitation was performed using protein samples (100-500 μg protein) from mouse hippocampus tissue. Precipitation was performed using a mouse antibody against 5-HT2AR (SantaCruz Biotechnology, sc-166775) and 25 μl protein A/G plus agarose bead slurry (santaCruz Biotechnology, sc-2001).
(§2) Western blot analysis was carried out after precipitation: the denatured protein was separated on 8% SDS-PAGE gel, then transferred to cellulose nitrate membrane and blocked with TBST; then incubated with mouse antibodies against D1R (SantaCruz Biotechnology, sc-33660) and D2R (SantaCruz Biotechnology, sc-5303) overnight at 4° C.; finally, treated with HRP-coupled secondary antibody for 1 hour, SuperSignal ECL Chemiluminescence Kit was used to detect the signal, and Image Lab software was used to analyze the density of the bands.
Mice were treated with TAT-5HT2AR-SV, TAT-5HT2AR-DV and TAT-5HT2AR-CT, and mice treated with TAT only were used as control (all treated by single intraperitoneal administration, 3 nmol/g). 1 hour after the treatment, the mice used were analyzed according to the co-immunoprecipitation method in Example 1, and the results are shown in FIG. 5.

[3] = system: mice; assay: Elevated plus maze test (EPM); format: in vivo, mouse; conditions: single intraperitoneal 3 nmol/g, 1 hour after treatment, 5 min, vs TAT
Experimental: (§3) To evaluate the antianxiety-like effect of the polypeptide of the present invention, mice treated with TAT-5HT2AR-SV, TAT-5HT2AR-DV, TAT-5HT2AR-CT (all treated by single intraperitoneal administration, 3 nmol/g) were subjected to open field test (OFT) for measuring residence time in central area and elevated plus maze test (EPM) 1 hour after treatment, with TAT-treated mice as control. Methods for the tests are as follows:
EPM: consists of two open arms (25 cm×8 cm) and two closed arms (25 cm×8 cm), with the intersection as the central area (8 cm×8 cm), which is 40 cm high from the ground. 1 hour after treated with the polypeptide, mice were placed in the central area facing the open arm, and were recorded for their free activities for 5 min. After each animal was tested, the device was wiped with 70% alcohol. The residence time at the open arm, the residence time at the closed arm, and the total movement distance of mice were recorded.

[4] = system: mice; assay: OFT for residence time in central area; format: in vivo, mouse; conditions: single intraperitoneal 3 nmol/g, 1 hour after treatment, 5 min, vs TAT
Experimental: as §3
OFT (for measuring the residence time in central area): open bottom surface was divided into 25 equal-area grids, with the middle 9 grids as the central area. 1 hour after treated with the polypeptide, mice were placed in the central area and recorded for 5 min, and the residence time of mice in the central area was recorded.

[5] = system: D1R and 5-HT2AR; assay: Direct Western blot of hippocampus tissue from treated stressed mice; format: in vivo, mouse; conditions: CRS, CMS and CSDS mice
Experimental: as §2
To further evaluate the ability of the polypeptide as an antidepressant, CRS, CMS and CSDS mouse models were constructed according to the method described in Example 2, respectively; 1 hour after construction, mouse models were treated with 10 μM TAT-5HT2AR-SV, TAT-5HT2AR-DV, TAT-5HT2AR-CT or TAT respectively (all treated by single intraperitoneal administration, 3 nmol/g); then FST and TST were performed on CRS, and FST, TST and sucrose preference test (SPT) were performed on CMS and CSDS mice respectively.
Further, the hippocampus tissue of treated CRS mice was directly analyzed by Western blot to investigate the expression levels of D1R and 5-HT2AR, and the results are shown in FIG. 10.
In addition, CRS, CMS and CSDS mice treated with TAT-5HT2AR-DV or TAT-5HT2AR-CT were tested respectively.

[6] = target: T2, 5-HT2AR/D1R complex; assay: Co-immunoprecipitation of hippocampus tissue from polypeptide-treated CRS, CMS and CSDS mice; format: in vivo; conditions: hippocampus tissue of stressed CRS, single intraperitoneal 3 nmol/g, vs TAT
Experimental: as §1
Western blot analysis was carried out after precipitation: the denatured protein was separated on 8% SDS-PAGE gel, then transferred to cellulose nitrate membrane and blocked with TBST; then incubated with mouse antibodies against D1R (SantaCruz Biotechnology, sc-33660) and D2R (SantaCruz Biotechnology, sc-5303) overnight at 4° C.; finally, treated with HRP-coupled secondary antibody for 1 hour, SuperSignal ECL Chemiluminescence Kit was used to detect the signal, and Image Lab software was used to analyze the density of the bands. […]
The treated CRS, CMS and CSDS mice of Example 6 (TAT-5HT2AR-SV, TAT-5HT2AR-DV, TAT-5HT2AR-CT and TAT) were analyzed according to the co-immunoprecipitation method of Example 1, and the Western blot results were shown in FIG. 9, respectively.

[7] = system: 5-HT2AR and D1R; assay: Direct Western blot of hippocampus tissue from polypeptide-treated mice; format: in vivo; conditions: mouse hippocampus tissue, single intraperitoneal 3 nmol/g, vs TAT
Experimental: as §2
In addition, the hippocampus tissues of TAT-5HT2AR-SV and TAT-treated mice were directly analyzed by Western blot.

[8] = target: T3, 5-HT2A receptor (5-HT2AR), endogenous, from mouse hippocampus tissue (mouse, UniProt P35363 1-471); assay: co-immunoprecipitation from mouse hippocampus tissue with anti-5-HT2AR antibody, Western blot for D2R
T3 construct: Native protein in a tissue lysate, precipitated with a mouse anti-5-HT2AR antibody (sc-166775)
T3 sequence (P35363 whole entry): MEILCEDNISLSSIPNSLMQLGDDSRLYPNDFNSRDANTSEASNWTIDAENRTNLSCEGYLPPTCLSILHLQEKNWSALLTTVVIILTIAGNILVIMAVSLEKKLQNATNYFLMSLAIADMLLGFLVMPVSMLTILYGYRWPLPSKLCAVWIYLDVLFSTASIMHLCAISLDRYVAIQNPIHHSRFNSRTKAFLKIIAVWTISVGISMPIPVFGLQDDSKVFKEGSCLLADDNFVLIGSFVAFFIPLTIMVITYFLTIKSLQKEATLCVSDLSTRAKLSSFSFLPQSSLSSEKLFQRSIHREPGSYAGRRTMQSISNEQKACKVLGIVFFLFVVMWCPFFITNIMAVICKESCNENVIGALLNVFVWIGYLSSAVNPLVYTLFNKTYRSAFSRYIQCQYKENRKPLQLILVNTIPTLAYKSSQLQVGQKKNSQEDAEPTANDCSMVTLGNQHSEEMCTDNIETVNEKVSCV

T2 sequence (Q61616 whole entry, one chain of several): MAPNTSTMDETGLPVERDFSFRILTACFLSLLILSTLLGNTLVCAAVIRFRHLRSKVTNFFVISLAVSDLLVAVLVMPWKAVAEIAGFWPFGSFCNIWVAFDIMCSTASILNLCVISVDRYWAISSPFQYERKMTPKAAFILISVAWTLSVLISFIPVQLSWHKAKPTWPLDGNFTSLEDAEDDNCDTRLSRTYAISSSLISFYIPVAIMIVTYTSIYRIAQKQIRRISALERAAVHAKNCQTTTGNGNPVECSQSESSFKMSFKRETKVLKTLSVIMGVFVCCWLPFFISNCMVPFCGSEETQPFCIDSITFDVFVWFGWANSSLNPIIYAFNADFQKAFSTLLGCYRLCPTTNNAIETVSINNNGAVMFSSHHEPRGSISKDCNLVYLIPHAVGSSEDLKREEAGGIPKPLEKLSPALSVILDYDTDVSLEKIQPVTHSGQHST
T1 sequence (Q61616 whole entry, the tested form may be a part): as the sequence (Q61616 whole entry, one chain of several) above

Molecule	pulldown of / affinity to D1R [1]	interaction of 5-HT2AR/D1R (co-immunoprecipitation) [2]	EPM residence time at the closed arm [3]	EPM residence time at the open arm [3]	OFT residence time in the central region [4]	D1R and 5-HT2AR levels [5]	interaction between 5-HT2AR and D1R (co-immunoprecipitation) [6]	expression of 5-HT2AR and D1R [7]	other results
GST-5HT2AR-DV: GST fusion protein containing a DV region of 5-HT2AR (D442-V471) (DCSMVALGKQHSEEASKDNSDGVNEKVSCV; not fully specified (N-terminus); cysteine pairing not given here; also: GST fusion protein)	can pulldown DIR	–	–	–	–	–	–	–	–
TAT-5HT2AR-DV: DV region (D442-V471) of 5-HT2AR fused with TAT (DCSMVALGKQHSEEASKDNSDGVNEKVSCV; cysteine pairing not given here; also: fused with TAT peptide at C-terminal region; UniProt P28223 442-471, looked up, fragment)	–	successfully destroyed the interaction of 5-HT2AR/D1R	decreased residence time at the closed arm	significantly increased residence time at the open arm	significantly increased the residence time	did not cause a significant change	significantly reduced the interaction between 5-HT2AR and D1R	did not cause a significant change	–
GST-5HT2AR-SV: GST fusion protein containing a SV region of 5-HT2AR (S457-V471) (SKDNSDGVNEKVSCV; not fully specified (N-terminus); also: GST fusion protein)	has an affinity to D1R	–	–	–	–	–	–	–	–
B1	–	successfully destroyed the interaction of 5-HT2AR/D1R	decreased residence time at the closed arm	significantly increased residence time at the open arm	significantly increased the residence time	did not cause a significant change	significantly reduced the interaction between 5-HT2AR and D1R	did not cause a significant change	–
B2	can pulldown DIR	–	–	–	–	–	–	–	–
B3	–	–	–	–	–	–	–	–	binding result [8]: no binding
